From the nanobody polyreactivity screen of Harvey et al. (2022)

Test: yeast display, Sf9 membrane polyspecificity reagent, FACS + sequencing; frameworks hold sequencing errors
Summary of the method: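 Nanobodies from a synthetic yeast display library (Saccharomyces cerevisiae BJ5465), induced 36–48 hours with galactose, were stained 1 hour at 4 °C with 10% biotinylated, detergent-solubilized Sf9 membrane reagent, enriched on streptavidin microbeads, then FACS-sorted. Anti-HA (expression) and streptavidin (reagent binding) fluorescence set low and high (top ~1%) gates. Polyreactivity labels come from the gate of origin. Genes were colony-PCR amplified, MiSeq 2 × 250 sequenced and filtered by CDR length.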

Sequence | polyreactivity (PSR sort gate)
QVQLVESGGGLVQAGASLRLSCAASGHIFDSYAMGWYRQAPGKERELVAAITSGGSTYYADSVKGRFTISRDYAKNTVYLQMNSLKSEDTAVYYCATELGAAGDDSWGQGTQVTVSS | low polyreactivity
QVQLVESGGGLVQAGASLRLSCAASGIILHYYAMGGYRQAPGKERELVAAISARGGRTYYADSVKGRFTISRDNAKNTVYLQMNSLKPEDTAVYYCARYLRRSSPSPGYGYWGQGTQVTVSS | high polyreactivity
QVQLVESGGGLVQAGASLRLSCAASGITFLDYAMGWYRQAPGTEREMVAVITWNDGSTYYADSVKGRFTISRDNAKNTVYLQMNSLKPEDTAVYYCAAEYADSWSAFDWNYYYWGQGTQVTVSS | high polyreactivity
QVQLVESGGGLVQAGASLRLSCAASGLIFVSNAMGWYRQAPGKERELVAAISWSGSRTYYADSVKGRFTISRDNAKINVYLHMTSLKPEDTAVFYCNAVRRGLPVVGAYDYWGQGTQVTVSS | high polyreactivity
QVQLVESGGGLVQAGASLRLSCAASGRIFNGYAMGWYRQAPWKERELVATIRYRGDNTYYADSVKGRFTISRDNAKNTVYLQMNSLKPEDTAVYYCNARVWYTSTSSWAKRYNYWGQGTQVTVSS | high polyreactivity
QVQLVESGGGLVQAGASLRLSCAASGRIFSGNAMGWYRQAPGKERELVAAISRGGSTDYADSVKGRFTSSRDNAKNTVYLQMNSLKPEDTAVYYCADRVNGKRRRYDYWGQGTLVTVSS | high polyreactivity
QVQLVESGGGLVQAGASLRLSCAASGRTFAWYAMGWYRQAPGKERELVAAISSGGSTYYADSVKGRFTISRDNAKISVYLQMNSLKPEDTAVYDCAAEWHYIYAYDYWGQGTKVTVSS | low polyreactivity
QVQLVESGGGLVQAGASLRLSCAASGRTFAYNAMGWSRQAPGKERELVATISNGGTTNYADSVKGRFTISRDNAKNTVYLQMNSLKPEDTAVYYCNRRSYTQVLMDYWGQGTQVTVSS | high polyreactivity
QVQLVESGGGLVQAGASLRLSCAASGRTFGRYTMGWYRQAPGKEREFVARINWNGGGTYYADSVKGRFTISRDNAKNTVYLQMNSLKPEDTAVYYCNARKRGARFILGYDYWGQGTQVTVSS | low polyreactivity
QVQLVESGGGLVQAGASLRLSCAASGRTFRYYAMGWYRQAPGKERELVAAINTGSSTYYADSVKGRFTISRDNAKYTVYLQMNSLKPEDTAVYYCNVFQGTRYGYWGQGTKVTVSS | low polyreactivity
QVQLVESGGGLVQAGASLRLSCAASGRTFSENAMGWYRQAPGKERELVAAISGSGGRTYYADSVKGRFTISRDNEKNTVYLQMKSLKPEVTAVYYCAKVTRYGSTYDYWGQGTQVTVSS | high polyreactivity
QVQLVESGGGLVQAGASLRLSCAASGRTLKVYAMGWYRQAPGKERELDAAINNGGSTNYADSVKGRFTISRDNAKNTVYLQMNSLKPEDTAVYYCNAVYYARYRKYTYYYWGQGTQVTVSS | high polyreactivity
QVQLVESGGGLVQAGASLRLSCAASGSIFGGYGMGWYRQAPGKERELVAAITSRVGSTYYADSVKGRFTSSRDNAKNTVYLQLNSLNPEDTAVYYCAAKRIYSWGRWTGDYWGQGTQVTVSS | high polyreactivity
QVQLVESGGGLVQAGASLRLSCAASGSIFRVYAMGWYRQAPGKERELVATIDTSTDSTYYADSVKGRFTISRDNAKNTVYIQMNSLKPEDTAVYYCNARGTYARYFQYDYSGQGTQVTVSS | low polyreactivity
QVQLVESGGGLVQAGASLRLSCAASGSIFSWYTMGWYRQAPGKERELVARITTSGGTTLYADSVKGRFTISRDNAKNTVYFQMNSLKPEDTAVYYCAADRSPYWRGYVRYNYWGQGTQVTVSS | high polyreactivity
QVQLVESGGGLVQAGASLRLSCAASGSIIDDYAMGWYRQAPGKERELVAAITYSGGTTYYADSVKGRFTISRDNAKNTVYLQLNSLKREDTAVYYCAAEWRVYYATYGYWGQGTQVTVSS | high polyreactivity
QVQLVESGGGLVQAGASLRLSCAASGSTFVIYTMGWYRQAPGKERDLVAAISWSGGITRYADSVKGRFTISRDNGKNTVYLQMNSLKPEDTAVYYCNASQWPSRFDYWGQGPQVTVSS | low polyreactivity
QVQLVESGGGLVQAGASLRLSCAASGSTLSYAMGWYRQAPGKERELVAAISRSGGSTYYADSVKGRFTISRDNAKNTVYLLMNSLKPEDTAVYYCAADPYPSYANGGYYWGQGTQVTVSS | low polyreactivity
QVQLVESGGGLVQAGASLRLSCAASVSTFGVNAMGCYRQAPGKERELVAAISSSGSSTYADSVKGRFTISRDNAKNTVYLQMNSLKPEDTAVYYCNITTLLSVVYDYWGQGTQVNVSS | low polyreactivity
QVQLVESGGGLVQAGASLRLSCAAYGNINAYYAMGWYRQAPGKERELVAAITDSGGNTFYADSVKGRFTISRDNAKNTVYLQMNSLTPADSAVYYCADDPDGWGFVYPRYDYWGQCTQVTVSS | low polyreactivity
QVQLVESGGGLVQAGASLRLSCAGSGIIFTRYAMGWYRQAPGKERELVAAITRNGVSTYYADSVKGRFTISRDNAKNTVYLQMNSLKPEDTAVYYCNTYVLRRYAYGYWGQGTQVTVSS | high polyreactivity
QVQLVESGGGLVQAGASLRLSCASSGSIFPGYDMGWYRQAPGKEREMVAAITTGGSTYYADSVKGRFTISRDNAKNTVYLQMNSLKPEDTAVYYCAAVYTGSGKRYYKGYYWGQGSQVTVSS | low polyreactivity

Sequence | polyreactivity (PSR sort gate)
QVQLVESGGGLVQAGASRRLSCAASVFTFGDNAMGWSRQATGKDRELVDAITSSGSTNYADSVKGRFTMSRDIAKNTVYLQLNSLTQEDTAVNYCNAEDSVDAPVYKDLGSEYDSWGQGTQVTVSS | low polyreactivity
QVQLVESGGGLVQAGCILRLSCAASGRIYVKAMGCYRQPPGIERELVAAIRSGGSTNYADSVKGLFTISRDNAKNTVYLQMNSLKPEDTAVYYCDAPYRLSKYDYWGQGTQVTESS | high polyreactivity
QVQLVESGGGLVQAGCSLRITCAASGYTFYDYAMGWYRQAPRKERELVAAISSSGGSTYYAHSVKGRFTISRDTAKNTVYLQMISLKPEDTAVYYCDVRARRWRYNYWGQGTQVTVSS | high polyreactivity
QVQLVESGGGLVQAGCSLRLSCAACGSIFGPYSMGWYRQAPAKEREFVAAISRSGTSTNYADSVKGRFTISRDNAKNTVYLQMNSLKPEDTAVYYCATAAFIVGSSRTYDYWGQGTQVTVSS | high polyreactivity
QVQLVESGGGLVQAGCSLRLSCAASGFTFDGYAMVSYRQAPGKERELVAAISDSGDSTYYADSVKGRFTISRDNAKNTVYLQMISLKPEDTADYYCAAALGYYWSDYFAYDYWGQGTQVTVSS | low polyreactivity
QVQLVESGGGLVQAGCSLRLSCAASGFTFIQYAMGWYRPAPGKERELVAAITRSGGRTYYADSVKGRFTISRDNAKNTVYLQMNSLKPEDTAVYYCNAVSRIYPGDEFGYWGQGTQVTVSS | high polyreactivity
QVQLVESGGGLVQAGCSLRLSCAASGRIFDTYAKGWYRQAPGKERELVATITAGTSTNYADSVKGRFTISRDNAKNTVYLKMNCLKPEDTAVYYCAASKYGSPPYRSYVYWGQGTQVSVSS | high polyreactivity
QVQLVESGGGLVQAGCSLRLSCAASGRIFSRNAMGWYRQAPGKERELVAVITKRGGSTYYADSVKGRFTISRDKAKNTVYLQMNSLKPEDTAVYYCNAVPRRGIAFNHWGQGTHVTVSS | high polyreactivity
QVQLVESGGGLVQAGCSLRLSCAASGRIFTTYAMGWYRQAPGKERELVASIDSRGDSTYADSVKGRFTISRDNAKNTVYLQMNSLKPEDTAVYYCAADSWYTWFDSWGQGTQVTVSS | low polyreactivity
QVQLVESGGGLVQAGCSLRLSCAASGRIFVKYTMGWYRQAPGKERELVAAIDFDTDSKYYADSVKGRFTFSRDNAKNTVYFQMNSLNPEDTAVYYCAADSYYYGYQGQTQYGWVWYDYWGQVTQVTVSS | low polyreactivity
QVQLVESGGGLVQAGCSLRLSCAASGRIYRRYAMGWYRQAPGKERELVAAISSRGGRTYYADSVKGRITISRDNAMNTVYLQMNSLKQEDTAVYYCAARPAGYGHYKYYYWGQGTQVTVSS | high polyreactivity
QVQLVESGGGLVQAGCSLRLSCAASGRPFWYNAMGGYRQAPGNVRELVAGISGSGGSTYYADSVKGRFTISRDNAKNTVYLQMNSLKPEDTAVYYCAATTGYSRSYRYGYWGQGTQVTVSS | high polyreactivity
QVQLVESGGGLVQAGCSLRLSCAASGRTFLLYAMGWYRQAPGKERELVAAITWGGGSTYYADSVKGRFTISRDNAKNIVYLQMNCLKPEDTAVYYCNAYYWSRMDYWGQGTQVTVSS | low polyreactivity
QVQLVESGGGLVQAGCSLRLSCAASGRTFVYNAMGWYRKAPGKERELVAGITGSGDSTYYADSVKGRFTISRDNAKNTVYLQMNSMKPEDTAVYYCNQLVEEDYWGQGTQVTVSS | low polyreactivity
QVQLVESGGGLVQAGCSLRLSCAASGSIFAPYAMGWYRQAPGKERELVAAISYSGGSTYYADSVKGRLTISRDNAKNTVYLQMNSLKPEDTAVYYCAARVLHQDFYKRYYWGQGTQVTVSS | high polyreactivity
QVQLVESGGGLVQAGCSLRLSCAASGSIFDTNAKGWYRQAPGKERELVAAIYDNTGRTYYADSVKGRFTISRDNSKNTVYLQMNSQKPEDTAVYYCNAPRYYWISFARWPASYYYWGQGTQVTVSS | high polyreactivity
QVQLVESGGGLVQAGCSLRLSCAASGSIFSQSAMGWYRQAPGKERELVAAISARGTSTYYADSVKGRFTISRDNAKNTVYLQMNSLKPEDTAVYYCNTVRPYSSSSSRYYYWGQGTQVTVSS | high polyreactivity
QVQLVESGGGLVQAGCSLRLSCAASGSIFSYYDMGSYRQAPGKERELVAGISRGGSTNYADSVKGRFTISRDNAKNTVYLQMNILKPEDTAVYYCNADQSSRTYPFRLSRRSLLYGYWGLGTQVTVSS | low polyreactivity
QVQLVESGGGLVQAGCSLRLSCAASGSIFYGYAMGWYRQAPGKERELVARITGSGGDTSYADSVKGRFTISRDNAKNTVYLQMNSLKPEDTAVYYCNTDLYITYTLYTGSEYDYWGQGTQVTVSS | low polyreactivity
QVQLVESGGGLVQAGCSLRLSCAASGSIFYRNPMVWYRQAPGKERELVAAISSDGSTNYADSVKGRFTISRDNAKNTVYLQMNSLKPEDTAVYYCAAPWTQILDYWGQGTQVTVSS | low polyreactivity
QVQLVESGGGLVQAGCSLRLSCAASGSILWHYAKGWYRQAPGKERELVAFISSSGSTYYADSVKGRFTISRDNAKNTVYLQMNSLKPEDTAVDYCNAYRLYSGYVPYDYWGQCTQVTVSS | high polyreactivity
